Measured values from PMC8259415.
Blank lines part the entries; values can stand above or below the substance they belong to.

How the values were obtained:
Abl2 SH2 domain = Abl2 SH2 domain (UniProt Q4JIM5); experiment: SH2-coupled bead pull-down from lysate, blot; settings: reference: wild type
[1] = biological target: Abl2 Src homology 2 (SH2) domain (UniProt Q4JIM5); experiment: pull-down; Abl2 SH2 covalently linked to AminoLink beads, 1 μM; 0 to 2 μM PDGFRβ CD; 1 h at 4 °C; 50 mM Hepes pH 7.25, 150 mM NaCl, 5% glycerol, 1 mM DTT; SDS-PAGE, Coomassie densitometry, one-site specific binding fit

Chain of UniProt Q4JIM5 (Q4JIM5 173-263): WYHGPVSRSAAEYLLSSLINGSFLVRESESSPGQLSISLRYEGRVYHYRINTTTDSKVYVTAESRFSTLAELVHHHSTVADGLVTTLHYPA

other: percent reduction relative to WT (Abl2 SH2 domain; sites Y751): 10%
Substance: PDGFRβ (from UniProt P09619) Y751F

other: percent reduction relative to WT (Abl2 SH2 domain; sites Y771): 90%
Substance: PDGFRβ (from UniProt P09619) Y771F

Kd [1]: 260 nM
Substance: autophosphorylated PDGFRβ cytoplasmic domain (CD) (from UniProt P09619 554-1106) (domain or fragment)
